{"source": "patent US20090074766A1", "about": "“Methods of inhibiting HIV-2 infection” (priority 2007, published 2009)", "key": {"[1]": {"test_system": "HIV-1 (CCR5-tropic virus)", "format": "in vivo", "settings": "for Mean log10 HIV RNA change: Day 10 post-treatment", "source_text": "The efficacy data collected during the study were changes in viral load and CD4 counts over time. The safety data collected during the study were serious adverse events (SAEs)/adverse events (AEs) and changes in laboratory parameters (hematology, chemistry), physical exam, viral tropism and ECGs over time.\n(§1) All patients were screened prior to the study for the presence of virus that utilizes only CCR5 as the entry coreceptor., i.e., CCR5-tropic virus.\nThe primary efficacy endpoint was the reduction in plasma HIV RNA level as measured by the Roche Amplicor™ Assay. The primary efficacy endpoint is the maximum change from baseline in viral load, defined as HIV-1 copies/ml, as measured by the Roche Amplicor™ Assay."}, "[2]": {"test_system": "viruses in PRO 140-treated subjects", "test": "Phase 1b: virus susceptibility of subjects' viruses (PhenoSense Assay)", "format": "cell-based, HIV-1", "source_text": "A non-limiting example of a widely used phenotypic HIV drug resistance test is the PhenoSense™ HIV assay, which measures the sensitivity of a virus to antiretroviral drugs."}, "[3]": {"test_system": "HIV-1JR-CSF", "test": "hu-PBL SCID mouse model infected with HIV-1JR-CSF (FIG. 5)", "format": "in vivo", "settings": "multiple doses after steady state viral levels, FIG. 5 legend", "protocol": "SCID mice were reconstituted with normal human peripheral blood mononuclear cells and infected 2 weeks later with HIV-1JR-CSF. Multiple doses of PRO 140 were administered following attainment of steady state viral levels. Plasma viral loads pre- and post-injection are indicated."}, "[4]": {"settings": "human, in vivo", "protocol": "Sera were diluted as appropriate and combined with L1.2-CCR5 cells, which are mouse pre-B lymphoma cells engineered to stably express human CCR5. […] Following incubation with test samples, cells were washed and combined with a FITC-labeled sheep antibody against human IgG4 (The Binding Site Limited, Cat. #AF009). Cells were washed again and analyzed by flow cytometry.\nSerum was collected post-treatment, cryopreserved, and analyzed for PRO 140 levels. Peak serum concentrations ranged to […] at 0.1 mg/kg and […] at 0.5 mg/kg."}, "[5]": {"test": "Phase 1b clinical trial: safety, immunogenicity, RANTES, coreceptor tropism (Trofile)", "format": "in vivo, human", "source_text": "as §1\nWhere no CXCR4-using clones are identified in a pre-dose sample from a subject, the on-treatment CXCR4-using virus can be identified as being phylogenetically very distant from the CCR5 tropic baseline virus; in such a case, the emergence of a pre-dose or pre-treatment CXCR4-using virus, i.e., one that is present at baseline, but is not detected, may likely explain the D/M tropism in the subject, as opposed to a tropism switch."}, "[6]": {"test_system": "CCR5 lymphocytes", "test": "Phase 1b clinical trial: coating of CCR5 lymphocytes (flow cytometry ex vivo)"}, "[7]": {"settings": "human, in vivo", "protocol": "Individuals were treated in sequential, dose-rising cohorts of 5 subjects (4 active and 1 placebo) each and evaluated for up to 120 days post-treatment. […] Safety assessments consisted of monitoring the following: vital signs (blood pressure, pulse, temperature, etc; hematology (hemoglobin, hematocrit, leukocytes, platelets, etc.); serum chemistries (AST/ALT, alkaline phosphatase, BUN, creatinine, etc.); urinalysis (pH, specific gravity, protein, glucose, leukocytes, etc.); and ECGs (12-lead).", "remark": "listed apart in the source"}, "[8]": {"test_system": "R5 HIV-2 SLRHC", "test": "Inhibition of replication in PBMC cultures, RT activity readout: HIV-2 SLRHC", "format": "cell-based", "protocol": "Viruses: All virus isolates were grown and titered exclusively in stimulated PBMC as described previously. […] The HIV-2 isolates used in this study have been previously described (Owen, S. M., Ellenberger, D., Rayfield, M., Wiktor, S., Michel, P., Grieco, M. H., Gao, F., Hahn, B. H., and Lai, R. B. 1998. Genetically Divergent Strains of Human Immunodeficiency Virus Type 2 Use Multiple Coreceptors for Entry. J Virol 72:5425-5432) and were obtained from the NIH AIDS Research and Reference Reagent Program.\nPA14 (Lot # DF-021204) was produced for reagent use in the Research & Development laboratories of Progenics Pharmaceuticals Inc.\nInhibition of HIV-1 and HIV-2 replication in PBMC cultures: PBMC were isolated from 34 healthy blood donors with Ficoll-Hypaque (all media from Cellgro, Herndon, Va.) and depleted of CD8+ cells using RosetteSep CD8 depletion cocktail (StemCell Technologies) according to the manufacturer's instructions. Equal numbers of cells from each donor were then separately stimulated with 5 ug phytohemagglutinin/ml (Sigma, St. Louis, Mo.) or with surface-immobilized anti-CD3 antibody OKT3 in RPMI 1640 medium containing 10% fetal calf serum, 100 Units of interleukin-2/ml (NIH AIDS Research and Reference Reagent Program), glutamine, and antibiotics (PBMC culture medium) as previously described. After 72 hours, equal numbers of PBMC stimulated by one of these two methods from each donor were combined for use in infection assays as follows. […] The virus inoculum was adjusted to 400 to 2,000 times the TCID50 per ml in PBMC culture medium, and a 50-ul aliquot was added to each culture. The inhibitory doses refer to the concentrations of the agents present at this point in the culture, when virus, cells, and inhibitors were all present at their final concentrations. Reverse Transcriptase (RT) activity was measured on Day 7 post infection (pi) for HIV-1 and Day 10 pi for HIV-2 by the Reverse Transcriptase Assay, Colorimetric kit, #11 468 120 910, Roche (Switzerland) according to the manufacturer's instructions with the following exception: neither ultracentrifugation nor PEG precipitation of the culture supernatants was performed before viral lysis.\nThe inhibition data were analyzed using GraphPad Prism software (GraphPad Software, San Diego, Calif.). A 4-parameter logistic fit was used calculate the concentration of inhibitor that afforded a 50% and a 90% reduction in RT activity. […] The % inhibitions where best-fit curve reached a top plateau, also as calculated by GraphPad Prism software, are reported as well as maximum percent inhibition (MPI). […] Inhibition curves with a poor sigmoid fit (R^2<0.7) were excluded from data analysis."}}, "note": "“And” between values parts separate entries of the source, which are not always exact repeats. Equal entries are not always repeated. Where two headings read alike, the source gives them in different places."}
{"molecule": "PRO 140: humanized IgG4,κ anti-CCR5 monoclonal antibody, humanized version of murine mAb PA14 (antibody, chains of the INN, looked up, V domains shown) VH: EVQLVESGGGLVKPGGSLRLSCAASGYTFSNYWIGWVRQAPGKGLEWIGDIYPGGNYIRNNEKFKDKTTLSADTSKNTAYLQMNSLKTEDTAVYYCGSSFGSNYVFAWFTYWGQGTLVTVSS VL: DIVMTQSPLSLPVTPGEPASISCRSSQRLLSSYGHTYLHWYLQKPGQSPQLLIYEVSNRFSGVPDRFSGSGSGTDFTLKISRVEAEDVGVYYCSQSTHVPLTFGQGTKVEIK", "values": [{"measurement": "individual viral load reductions ranging up to", "setting": "[1]; 2.0 mg/kg and 5.0 mg/kg dose levels", "result": "up to 2.5 log10 and ≤ 99.7%"}, {"measurement": "Maximum decrease of viral load at any time", "setting": "[1]; 5 mg/kg", "result": "−1.8", "unit": "log"}, {"measurement": "Patients with <400 copies/mL (anytime)", "setting": "[1]; 5 mg/kg", "result": "4/10"}, {"measurement": "Patients with >1 log decrease (anytime)", "setting": "[1]; 5 mg/kg", "result": "10/10"}, {"measurement": "viral load decrease at day 22", "setting": "[1]; 5 mg/kg", "result": "−0.73"}, {"measurement": "time to suppression of mean viral load by 1.0 log10 (90%)", "setting": "[1]; 5.0 mg/kg cohort", "result": "within four days"}, {"measurement": "time viral load persisted at or below the 1.0 log10 level of reduction", "setting": "[1]; 5.0 mg/kg cohort", "result": "two to three weeks"}, {"measurement": "Mean log10 HIV RNA change", "setting": "[1]; 0.5 mg/kg", "result": "−0.37", "unit": "log10"}, {"measurement": "Mean log10 HIV RNA change", "setting": "[1]; 2.0 mg/kg", "result": "−1.04", "unit": "log10"}, {"measurement": "Mean log10 HIV RNA change", "setting": "[1]; 5.0 mg/kg", "result": "−1.70", "unit": "log10"}, {"measurement": "response rate (percentage of patients with a ≧1 log10 decrease in HIV RNA at any time)", "setting": "[1]; highest dose cohort", "result": 100, "unit": "%"}, {"measurement": "change in rIC50 post-treatment", "setting": "[2]; all subjects", "result": "Less than 2 fold"}, {"measurement": "Mean Maximum Percent Inhibition (MPI)", "setting": "[2]; baseline", "result": "99% (range: 93-100%)"}, {"measurement": "Mean rIC50", "setting": "[2]; baseline", "result": "2.0 (range: 0.83-5.1)"}, {"measurement": "Mean MPI", "setting": "[2]; post-treatment", "result": "99% (range: 93-100%)"}, {"measurement": "Mean rIC50", "setting": "[2]; post-treatment", "result": "2.1 (range: 0.98-4.71)"}, {"measurement": "control of viral replication in HIV-1-infected mice", "setting": "[3]", "result": "provides prolonged control of viral replication"}, {"measurement": "terminal serum half-life", "setting": "[4]", "result": "240 to 288", "unit": "h"}, {"measurement": "subjects with dual/mixed tropism result post-treatment", "setting": "[5]; PRO 140 subjects (0.5 mg/kg group, day 8 only)", "result": "1/30"}, {"measurement": "dose-limiting toxicity", "setting": "[5]; Phase 1b", "result": "No dose-limiting toxicity or obvious pattern of toxicity"}, {"measurement": "plasma RANTES (CCL5) chemokine levels", "setting": "[5]; Phase 1b", "result": "No change in plasma RANTES (CCL5) chemokine levels"}, {"measurement": "treatment related SAEs", "setting": "[5]; Phase 1b", "result": "No treatment related SAEs"}, {"measurement": "tolerability", "setting": "[5]; all study groups (0.5, 2.0, 5.0 mg/kg)", "result": "well-tolerated"}, {"measurement": "depletion of CCR5+ lymphocytes", "setting": "[6]", "result": "No depletion of CCR5+ lymphocytes"}, {"measurement": "dose-limiting toxicity", "setting": "[7]", "result": "no dose-limiting toxicity"}, {"measurement": "EC50 (median)", "setting": "[8]; HIV-2 SLRHC, R5", "result": 0.57, "unit": "µg/mL"}, {"measurement": "EC90 (median)", "setting": "[8]; HIV-2 SLRHC, R5", "result": 21, "unit": "µg/mL"}, {"measurement": "MPI (maximum percent inhibition)", "setting": "[8]; R5 HIV-2 SLRHC, individual assays (Source)", "result": "104% and 135% and 127% and 150%"}, {"measurement": "MPI, Median", "setting": "[8]; R5 HIV-2 SLRHC, median of assays", "result": 135, "unit": "%"}]}
